Source: patent US20240067696A1 (ZEALAND PHARMA A S, published 2024)
Non-standard residues stand in square brackets, D forms with d. Dab = NCC[C@H](N)C(=O)O; Aib = CC(C)(N)C(=O)O

B1: Compound 25 (peptide)
peptide: H-HSQGTFTSDYSKYLD[Aib]RRAESFVKWLEST-OH
SMILES: CC(C)C[C@H](NC(=O)[C@H](Cc1c[nH]c2ccccc12)NC(=O)[C@H](CCCCN)NC(=O)[C@@H](NC(=O)[C@H](Cc1ccccc1)NC(=O)[C@H](CO)NC(=O)[C@H](CCC(=O)O)NC(=O)[C@H](C)NC(=O)[C@H](CCCNC(=N)N)NC(=O)[C@H](CCCNC(=N)N)NC(=O)C(C)(C)NC(=O)[C@H](CC(=O)O)NC(=O)[C@H](CC(C)C)NC(=O)[C@H](Cc1ccc(O)cc1)NC(=O)[C@H](CCCCN)NC(=O)[C@H](CO)NC(=O)[C@H](Cc1ccc(O)cc1)NC(=O)[C@H](CC(=O)O)NC(=O)[C@H](CO)NC(=O)[C@@H](NC(=O)[C@H](Cc1ccccc1)NC(=O)[C@@H](NC(=O)CNC(=O)[C@H](CCC(N)=O)NC(=O)[C@H](CO)NC(=O)[C@@H](N)Cc1c[nH]cn1)[C@@H](C)O)[C@@H](C)O)C(C)C)C(=O)N[C@@H](CCC(=O)O)C(=O)N[C@@H](CO)C(=O)N[C@H](C(=O)O)[C@@H](C)O
B2: Compound 24 (peptide)
peptide: H-HS[Dab](Ac)GTFTSDYSKYLD[Aib]ARAESFVKWLEST-NH2
SMILES: CC(=O)NCC[C@H](NC(=O)[C@H](CO)NC(=O)[C@@H](N)Cc1c[nH]cn1)C(=O)NCC(=O)N[C@H](C(=O)N[C@@H](Cc1ccccc1)C(=O)N[C@H](C(=O)N[C@@H](CO)C(=O)N[C@@H](CC(=O)O)C(=O)N[C@@H](Cc1ccc(O)cc1)C(=O)N[C@@H](CO)C(=O)N[C@@H](CCCCN)C(=O)N[C@@H](Cc1ccc(O)cc1)C(=O)N[C@@H](CC(C)C)C(=O)N[C@@H](CC(=O)O)C(=O)NC(C)(C)C(=O)N[C@@H](C)C(=O)N[C@@H](CCCNC(=N)N)C(=O)N[C@@H](C)C(=O)N[C@@H](CCC(=O)O)C(=O)N[C@@H](CO)C(=O)N[C@@H](Cc1ccccc1)C(=O)N[C@H](C(=O)N[C@@H](CCCCN)C(=O)N[C@@H](Cc1c[nH]c2ccccc12)C(=O)N[C@@H](CC(C)C)C(=O)N[C@@H](CCC(=O)O)C(=O)N[C@@H](CO)C(=O)N[C@H](C(N)=O)[C@@H](C)O)C(C)C)[C@@H](C)O)[C@@H](C)O
B3: Compound 20 (peptide)
peptide: H-HAQGTFTSDYSKYLD[Aib]ARAESFVKWLEST-OH
SMILES: CC(C)C[C@H](NC(=O)[C@H](Cc1c[nH]c2ccccc12)NC(=O)[C@H](CCCCN)NC(=O)[C@@H](NC(=O)[C@H](Cc1ccccc1)NC(=O)[C@H](CO)NC(=O)[C@H](CCC(=O)O)NC(=O)[C@H](C)NC(=O)[C@H](CCCNC(=N)N)NC(=O)[C@H](C)NC(=O)C(C)(C)NC(=O)[C@H](CC(=O)O)NC(=O)[C@H](CC(C)C)NC(=O)[C@H](Cc1ccc(O)cc1)NC(=O)[C@H](CCCCN)NC(=O)[C@H](CO)NC(=O)[C@H](Cc1ccc(O)cc1)NC(=O)[C@H](CC(=O)O)NC(=O)[C@H](CO)NC(=O)[C@@H](NC(=O)[C@H](Cc1ccccc1)NC(=O)[C@@H](NC(=O)CNC(=O)[C@H](CCC(N)=O)NC(=O)[C@H](C)NC(=O)[C@@H](N)Cc1c[nH]cn1)[C@@H](C)O)[C@@H](C)O)C(C)C)C(=O)N[C@@H](CCC(=O)O)C(=O)N[C@@H](CO)C(=O)N[C@H](C(=O)O)[C@@H](C)O
B4: Compound 22 (peptide)
peptide: H-HSQ[dA]TFTSDYSKYLD[Aib]ARAESFVKWLEST-OH
SMILES: CC(C)C[C@H](NC(=O)[C@H](Cc1c[nH]c2ccccc12)NC(=O)[C@H](CCCCN)NC(=O)[C@@H](NC(=O)[C@H](Cc1ccccc1)NC(=O)[C@H](CO)NC(=O)[C@H](CCC(=O)O)NC(=O)[C@H](C)NC(=O)[C@H](CCCNC(=N)N)NC(=O)[C@H](C)NC(=O)C(C)(C)NC(=O)[C@H](CC(=O)O)NC(=O)[C@H](CC(C)C)NC(=O)[C@H](Cc1ccc(O)cc1)NC(=O)[C@H](CCCCN)NC(=O)[C@H](CO)NC(=O)[C@H](Cc1ccc(O)cc1)NC(=O)[C@H](CC(=O)O)NC(=O)[C@H](CO)NC(=O)[C@@H](NC(=O)[C@H](Cc1ccccc1)NC(=O)[C@@H](NC(=O)[C@@H](C)NC(=O)[C@H](CCC(N)=O)NC(=O)[C@H](CO)NC(=O)[C@@H](N)Cc1c[nH]cn1)[C@@H](C)O)[C@@H](C)O)C(C)C)C(=O)N[C@@H](CCC(=O)O)C(=O)N[C@@H](CO)C(=O)N[C@H](C(=O)O)[C@@H](C)O
B5: Compound 15 (peptide)
peptide: H-HSQGTFTSDYSKYLD[Aib]ARAESFVKWLEST-OH
SMILES: CC(C)C[C@H](NC(=O)[C@H](Cc1c[nH]c2ccccc12)NC(=O)[C@H](CCCCN)NC(=O)[C@@H](NC(=O)[C@H](Cc1ccccc1)NC(=O)[C@H](CO)NC(=O)[C@H](CCC(=O)O)NC(=O)[C@H](C)NC(=O)[C@H](CCCNC(=N)N)NC(=O)[C@H](C)NC(=O)C(C)(C)NC(=O)[C@H](CC(=O)O)NC(=O)[C@H](CC(C)C)NC(=O)[C@H](Cc1ccc(O)cc1)NC(=O)[C@H](CCCCN)NC(=O)[C@H](CO)NC(=O)[C@H](Cc1ccc(O)cc1)NC(=O)[C@H](CC(=O)O)NC(=O)[C@H](CO)NC(=O)[C@@H](NC(=O)[C@H](Cc1ccccc1)NC(=O)[C@@H](NC(=O)CNC(=O)[C@H](CCC(N)=O)NC(=O)[C@H](CO)NC(=O)[C@@H](N)Cc1c[nH]cn1)[C@@H](C)O)[C@@H](C)O)C(C)C)C(=O)N[C@@H](CCC(=O)O)C(=O)N[C@@H](CO)C(=O)N[C@H](C(=O)O)[C@@H](C)O
B6: Compound 12 (peptide)
peptide: H-HSQGTFTSDYSKYLD[Aib]ARAEDFVKWLEST-OH
SMILES: CC(C)C[C@H](NC(=O)[C@H](Cc1c[nH]c2ccccc12)NC(=O)[C@H](CCCCN)NC(=O)[C@@H](NC(=O)[C@H](Cc1ccccc1)NC(=O)[C@H](CC(=O)O)NC(=O)[C@H](CCC(=O)O)NC(=O)[C@H](C)NC(=O)[C@H](CCCNC(=N)N)NC(=O)[C@H](C)NC(=O)C(C)(C)NC(=O)[C@H](CC(=O)O)NC(=O)[C@H](CC(C)C)NC(=O)[C@H](Cc1ccc(O)cc1)NC(=O)[C@H](CCCCN)NC(=O)[C@H](CO)NC(=O)[C@H](Cc1ccc(O)cc1)NC(=O)[C@H](CC(=O)O)NC(=O)[C@H](CO)NC(=O)[C@@H](NC(=O)[C@H](Cc1ccccc1)NC(=O)[C@@H](NC(=O)CNC(=O)[C@H](CCC(N)=O)NC(=O)[C@H](CO)NC(=O)[C@@H](N)Cc1c[nH]cn1)[C@@H](C)O)[C@@H](C)O)C(C)C)C(=O)N[C@@H](CCC(=O)O)C(=O)N[C@@H](CO)C(=O)N[C@H](C(=O)O)[C@@H](C)O
B7: Compound 23 (peptide)
peptide: H-HSQGTFTSDVSKYLD[Aib]ARAESFVKWLEST-OH
SMILES: CC(C)C[C@H](NC(=O)[C@H](Cc1c[nH]c2ccccc12)NC(=O)[C@H](CCCCN)NC(=O)[C@@H](NC(=O)[C@H](Cc1ccccc1)NC(=O)[C@H](CO)NC(=O)[C@H](CCC(=O)O)NC(=O)[C@H](C)NC(=O)[C@H](CCCNC(=N)N)NC(=O)[C@H](C)NC(=O)C(C)(C)NC(=O)[C@H](CC(=O)O)NC(=O)[C@H](CC(C)C)NC(=O)[C@H](Cc1ccc(O)cc1)NC(=O)[C@H](CCCCN)NC(=O)[C@H](CO)NC(=O)[C@@H](NC(=O)[C@H](CC(=O)O)NC(=O)[C@H](CO)NC(=O)[C@@H](NC(=O)[C@H](Cc1ccccc1)NC(=O)[C@@H](NC(=O)CNC(=O)[C@H](CCC(N)=O)NC(=O)[C@H](CO)NC(=O)[C@@H](N)Cc1c[nH]cn1)[C@@H](C)O)[C@@H](C)O)C(C)C)C(C)C)C(=O)N[C@@H](CCC(=O)O)C(=O)N[C@@H](CO)C(=O)N[C@H](C(=O)O)[C@@H](C)O

The binders below were run against human glucagon receptor (human, UniProt P47871 26-477) (assay: cell-based or functional assay).
Sequence of human glucagon receptor (P47871 26-477): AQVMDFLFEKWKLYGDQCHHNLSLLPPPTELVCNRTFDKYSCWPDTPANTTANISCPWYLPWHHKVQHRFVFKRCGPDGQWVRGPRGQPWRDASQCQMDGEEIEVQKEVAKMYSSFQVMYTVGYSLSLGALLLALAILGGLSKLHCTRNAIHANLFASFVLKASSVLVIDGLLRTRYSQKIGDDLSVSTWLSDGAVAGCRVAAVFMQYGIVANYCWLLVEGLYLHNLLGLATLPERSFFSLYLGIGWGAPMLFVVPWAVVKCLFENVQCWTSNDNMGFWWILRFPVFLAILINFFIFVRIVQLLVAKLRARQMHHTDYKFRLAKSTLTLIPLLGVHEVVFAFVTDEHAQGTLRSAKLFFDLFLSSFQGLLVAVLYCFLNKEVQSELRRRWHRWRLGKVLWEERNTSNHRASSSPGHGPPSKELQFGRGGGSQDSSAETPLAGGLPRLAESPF
In the case of B1, the “GCG-R EC50 in vitro [nM] (cAMP, AlphaScreen, HEK293 cells expressing human Glucagon-R)” value (from here on “GCG-R EC50 in vitro [nM]”) is reported as 0.0066 nM. In the case of B2, the “GCG-R EC50 in vitro [nM]” value is reported as 0.0078 nM. With B3 the “GCG-R EC50 in vitro [nM]” value was 0.24 nM. B4 was tested, and the “GCG-R EC50 in vitro [nM]” value was 0.024 nM. H-HSQGTFTSDLSKYLDSARAEDFVKWLEST-OH [Compound 11] was tested, and the “GCG-R EC50 in vitro [nM]” value was 0.11 nM. H-HSQGTFTSDYSKYLDSARAEEFVKWLEST-OH [Compound 9] was tested, and the “GCG-R EC50 in vitro [nM]” value was 0.03 nM. In the case of H-HSQGTFTSDYSKYLDSARAEDFVKWLEET-OH [Compound 2], the “GCG-R EC50 in vitro [nM]” value is reported as 0.18 nM. With H-HSQGTFTSDYSKYLDEARAKSFVEWLEST-OH [Compound 28] the “GCG-R EC50 in vitro [nM]” value was 0.035 nM. For B5, the “GCG-R EC50 in vitro [nM]” value was 0.03 nM. In the case of B6, the “GCG-R EC50 in vitro [nM]” value is reported as 0.03 nM. In the case of H-HSQGTFTSDYSKYLESARAESFVKWLEST-OH [Compound 16], the “GCG-R EC50 in vitro [nM]” value is reported as 0.39 nM. In the case of H-HSQGTFTSDYSKYLDVARAESFVKWLEST-OH [Compound 19], the “GCG-R EC50 in vitro [nM]” value is reported as 0.054 nM. In the case of H-HSQGTFTSDYSKYLDEARAEDFVKWLEST-OH [Compound 14], the “GCG-R EC50 in vitro [nM]” value is reported as 0.15 nM. For H-HSQGTFTSDYSKYLDSARAESFVKWLEST-OH [Compound 1], the “GCG-R EC50 in vitro [nM]” value was 0.064 nM. In the case of H-HSQGTFTSDYSKYLDSARAEDFVKWLES-OH [Compound 13], the “GCG-R EC50 in vitro [nM]” value is reported as 0.07 nM. B7 was tested, and the “GCG-R EC50 in vitro [nM]” value was 0.16 nM. With H-HSQGTFTSDYSKYLDLARAEDFVKWLEST-OH [Compound 17] the “GCG-R EC50 in vitro [nM]” value was 0.029 nM. For H-HSQGTFTSDYSKYLDSARAEDFVSWLEST-OH [Compound 10], the “GCG-R EC50 in vitro [nM]” value was 0.32 nM. For H-HSQGTFTSDYSKYLDEARAKSFVEWLEKT-OH [Compound 27], the “GCG-R EC50 in vitro [nM]” value was 0.063 nM. H-HSQGTFTSDYSKYLDKRRAEDFVSWLEST-OH [Compound 18] was tested, and the “GCG-R EC50 in vitro [nM]” value was 0.026 nM.
